Results published in article PMC8617651, “Cloning, Expression and Characterization of UDP-Glucose Dehydrogenases” (Life, 2021).

Key:
Test in all cases: UDP-GlcA formation by UHPLC, Michaelis-Menten fit, crude extract
Settings in all cases: 0.5 mM NAD+, 50 mM Tris-HCl pH 8.0, 30 °C, 0.5 g/L extract protein, 1-5 mM UDP-Glc
[1] = substrate: O=c1ccn([C@@H]2O[C@H](CO[P@@](=O)(O)O[P@@](=O)(O)O[C@H]3O[C@H](CO)[C@@H](O)[C@H](O)[C@H]3O)[C@@H](O)[C@H]2O)c(=O)[nH]1; format: biochemical, Capra hircus
Excerpt: UDP-GlcA formation by UHPLC, Michaelis-Menten fit, crude extract on ChUGD

[2] = substrate: O=c1ccn([C@@H]2O[C@H](CO[P@@](=O)(O)O[P@@](=O)(O)O[C@H]3O[C@H](CO)[C@@H](O)[C@H](O)[C@H]3O)[C@@H](O)[C@H]2O)c(=O)[nH]1; format: biochemical, Zymomonas mobilis
Excerpt: (§1) UDP-GlcA formation by UHPLC, Michaelis-Menten fit, crude extract on ZmUGD

[3] = substrate: O=c1ccn([C@@H]2O[C@H](CO[P@@](=O)(O)O[P@@](=O)(O)O[C@H]3O[C@H](CO)[C@@H](O)[C@H](O)[C@H]3O)[C@@H](O)[C@H]2O)c(=O)[nH]1; format: biochemical, Zymomonas mobilis; remark: listed apart in the source
Excerpt: as §1

B1: ChUGD (Capra hircus) (protein)
chain: MFEIKKICCIGAGYVGGPTCSVIAHMCPEIRVTVVDINESRINAWNSPTLPIYEPGLKEVVESCRGKNLFFSTNIDDAIKEADLVFISVNTPTKTYGMGKGRAADLKYIEACARRIVQNSHGYKIVTEKSTVPVRAAESIRRIFDANTKPNLNLQVLSNPEFLAEGTAIKDLKNPDRVLIGGDETPEGQRAVQALCAVYEHWVPREKILTTNTWSSELSKLTANAFLAQRISSINSISALCEATGADVEEVATAIGMDQRIGSKFLKASVGFGGSCFQKDVLNLVYLCEALNLPEVARYWQQVIDMNDYQRRRFASRIIDSLFNTVTDKKIAILGFAFKKDTGDTRESSSIYISKYLMDEGAHLHIYDPKVPREQIVVDLSHPGVSKDDQVARLVTISKDPYEACDGAHAVVICTEWDMFKELDYERIHKKMLKPAFIFDGRRVLDGLHNELQTIGFQIETIGKKVSSKRIPYAPSGEIPKFSLQDMPNKKPRV
notes: codon-optimized synthetic gene, N-terminal 6xHis tag, expressed in S. cerevisiae, crude soluble cell extract
[1]
  Km: 841 µM

B2: ZmUGD (Zymomonas mobilis) (protein)
chain: MRITMIGSGYVGLVSGACFSDFGHNVICVDHDQEKIALLQKGVMPIYEPGLADMVANNVKAGRLSFSNDLASSVKDADAVFIAVGTPSRRGDGHADLSYVFAAAKEIAASVSDNTVVVDKSTVPVGTGDEVERIIREIAPDKKIWVASNPEFLREGAAIGDFKRPDRIVIGTENPEAREIMQEIYRPLYLNQSPILFTSRRSAELIKYASNAFLATKITFINEMADLCEAVGGDVQDVARGIGADNRIGSKFLHAGPGYGGSCFPKDTLALLKTAENFATPLRVVESVVTANNIRKRAMARKVLQAIGKDMRGQKIGLLGLTFKPNTDDMRDAPSLALIQGLEDAGAIIHAYDPEGMTQARPLLPNVVFEDEPYKVAEKAEALVIVTEWDAFRALDLKRIAGLLKTPLLLDLRNIYTEEEAKKAGLVYHGIGRPHAG
notes: N-terminal 6xHis tag (pRSFDuet-1), expressed in E. coli BL21 (DE3), crude soluble cell extract (host has a predicted own UGD)
[2]
  Km: 1234 µM
[3]
  Km: 2586 µM
